± gives the uncertainty stated by the source.

A short description of the series: abundance fitness (aPCA) (normalised: wild type 0, dead -1); higher = more abundant; growth selection in yeast, the domain comes from the species named. As to conditions: Homo sapiens.
“Transcriptional activator Myb E194D, P10242” came in with an abundance fitness of -0.001 ± 0.16.

As to “Transcriptional activator Myb E194F, P10242”, the abundance fitness was -0.168 ± 0.27.

Substance “Transcriptional activator Myb E194G, P10242” yielded an abundance fitness of -0.135 ± 0.068.

For “Transcriptional activator Myb E194H, P10242”, the abundance fitness is -0.403 ± 0.49.

Consider “Transcriptional activator Myb E194K, P10242”, for which the abundance fitness is -0.067 ± 0.13.

“Transcriptional activator Myb E194L, P10242” came in with an abundance fitness of -0.192 ± 0.088.

“Transcriptional activator Myb E194M, P10242” showed an abundance fitness of -0.229 ± 0.26.

As for “Transcriptional activator Myb E194N, P10242”, the abundance fitness is -0.316 ± 0.36.

“Transcriptional activator Myb E194P, P10242” had an abundance fitness of 0.022 ± 0.21.

Substance “Transcriptional activator Myb E194Q, P10242” gave an abundance fitness of -0.125 ± 0.13.

For the substance “Transcriptional activator Myb E194R, P10242”, the abundance fitness is -0.102 ± 0.089.

For the substance “Transcriptional activator Myb E194S, P10242”, the abundance fitness was -0.161 ± 0.1.

In turn, “Transcriptional activator Myb E194T, P10242” displayed an abundance fitness of -0.001 ± 0.12.

Take “Transcriptional activator Myb E194V, P10242”: the abundance fitness is -0.037 ± 0.095.

In the case of “Transcriptional activator Myb E194W, P10242”, the abundance fitness was -0.152 ± 0.13.

Regarding “Transcriptional activator Myb E194Y, P10242”, the abundance fitness is -0.174 ± 0.24.

On to “Transcriptional activator Myb E196A, P10242”, for which the abundance fitness is -0.069 ± 0.079.

The substance “Transcriptional activator Myb E196C, P10242” displayed an abundance fitness of -0.13 ± 0.089.

Regarding “Transcriptional activator Myb E196D, P10242”, the abundance fitness was -0.056 ± 0.11.

Take “Transcriptional activator Myb E196F, P10242”: the abundance fitness is -0.247 ± 0.15.

Turning to “Transcriptional activator Myb E196G, P10242”, the abundance fitness amounted to 0.007 ± 0.057.

Consider “Transcriptional activator Myb E196H, P10242”, for which the abundance fitness is -0.196 ± 0.1.

“Transcriptional activator Myb E196I, P10242” showed an abundance fitness of -0.34 ± 0.12.

For “Transcriptional activator Myb E196K, P10242”, the abundance fitness was -0.064 ± 0.1.

Substance “Transcriptional activator Myb E196L, P10242” had an abundance fitness of -0.03 ± 0.072.

As for “Transcriptional activator Myb E196M, P10242”, the abundance fitness is -0.084 ± 0.093.

Take “Transcriptional activator Myb E196N, P10242”: the abundance fitness is -0.022 ± 0.089.

Substance “Transcriptional activator Myb E196P, P10242” displayed an abundance fitness of -0.114 ± 0.1.

Substance “Transcriptional activator Myb E196Q, P10242” returned an abundance fitness of -0.032 ± 0.12.

Consider “Transcriptional activator Myb E196R, P10242”, for which the abundance fitness is -0.092 ± 0.046.

Turning to “Transcriptional activator Myb E196S, P10242”, the abundance fitness was -0.052 ± 0.064.

With “Transcriptional activator Myb E196T, P10242”, the abundance fitness is -0.044 ± 0.1.

Turning to “Transcriptional activator Myb E196V, P10242”, the abundance fitness was -0.121 ± 0.092.

On to “Transcriptional activator Myb E196W, P10242”, for which the abundance fitness was -0.151 ± 0.067.

Substance “Transcriptional activator Myb E196Y, P10242” showed an abundance fitness of -0.306 ± 0.17.

Substance “Transcriptional activator Myb E201A, P10242” registered an abundance fitness of -0.094 ± 0.076.

The substance “Transcriptional activator Myb E201C, P10242” had an abundance fitness of -0.314 ± 0.11.

“Transcriptional activator Myb E201F, P10242” had an abundance fitness of -0.521 ± 0.35.

Substance “Transcriptional activator Myb E201G, P10242” displayed an abundance fitness of -0.076 ± 0.054.

In the case of “Transcriptional activator Myb E201H, P10242”, the abundance fitness is -0.034 ± 0.15.

As to “Transcriptional activator Myb E201I, P10242”, the abundance fitness was -0.156 ± 0.2.

As for “Transcriptional activator Myb E201K, P10242”, the abundance fitness is -0.272 ± 0.16.

Turning to “Transcriptional activator Myb E201L, P10242”, the abundance fitness was -0.158 ± 0.097.

“Transcriptional activator Myb E201M, P10242” showed an abundance fitness of -0.078 ± 0.24.

In turn, “Transcriptional activator Myb E201N, P10242” had an abundance fitness of 0.095 ± 0.14.

For the substance “Transcriptional activator Myb E201P, P10242”, the abundance fitness was -0.221 ± 0.13.

Substance “Transcriptional activator Myb E201Q, P10242” yielded an abundance fitness of -0.061 ± 0.14.

“Transcriptional activator Myb E201R, P10242” yielded an abundance fitness of -0.12 ± 0.066.

“Transcriptional activator Myb E201S, P10242” had an abundance fitness of -0.105 ± 0.1.

“Transcriptional activator Myb E201V, P10242” showed an abundance fitness of -0.183 ± 0.078.

In turn, “Transcriptional activator Myb E201W, P10242” yielded an abundance fitness of -0.204 ± 0.08.

“Transcriptional activator Myb E201Y, P10242” gave an abundance fitness of -0.377 ± 0.14.

As to “Transcriptional activator Myb G163A, P10242”, the abundance fitness is -0.329 ± 0.069.

“Transcriptional activator Myb G163C, P10242” showed an abundance fitness of -0.468 ± 0.093.

Consider “Transcriptional activator Myb G163D, P10242”, for which the abundance fitness was -0.356 ± 0.086.

Regarding “Transcriptional activator Myb G163E, P10242”, the abundance fitness was -0.25 ± 0.088.

Turning to “Transcriptional activator Myb G163F, P10242”, the abundance fitness is -0.89 ± 0.16.

Consider “Transcriptional activator Myb G163K, P10242”, for which the abundance fitness is -0.405 ± 0.11.

“Transcriptional activator Myb G163L, P10242” had an abundance fitness of -0.581 ± 0.082.

Turning to “Transcriptional activator Myb G163M, P10242”, the abundance fitness is -0.484 ± 0.12.

“Transcriptional activator Myb G163P, P10242” registered an abundance fitness of -0.19 ± 0.1.

“Transcriptional activator Myb G163R, P10242” yielded an abundance fitness of -0.422 ± 0.059.

For “Transcriptional activator Myb G163S, P10242”, the abundance fitness was -0.406 ± 0.078.

On to “Transcriptional activator Myb G163T, P10242”, for which the abundance fitness is -0.595 ± 0.11.

“Transcriptional activator Myb G163V, P10242” came in with an abundance fitness of -0.537 ± 0.084.

The substance “Transcriptional activator Myb G163W, P10242” gave an abundance fitness of -0.602 ± 0.084.

“Transcriptional activator Myb G163Y, P10242” returned an abundance fitness of -0.577 ± 0.46.

In turn, “Transcriptional activator Myb G175A, P10242” registered an abundance fitness of -0.085 ± 0.058.

Regarding “Transcriptional activator Myb G175C, P10242”, the abundance fitness is -0.171 ± 0.1.

On to “Transcriptional activator Myb G175D, P10242”, for which the abundance fitness is 0.021 ± 0.079.

Consider “Transcriptional activator Myb G175E, P10242”, for which the abundance fitness was 0.023 ± 0.079.

Turning to “Transcriptional activator Myb G175F, P10242”, the abundance fitness is -0.308 ± 0.12.

“Transcriptional activator Myb G175H, P10242” showed an abundance fitness of 0.101 ± 0.17.

“Transcriptional activator Myb G175I, P10242” showed an abundance fitness of -0.961 ± 0.35.

Consider “Transcriptional activator Myb G175K, P10242”, for which the abundance fitness is -0.036 ± 0.095.

For “Transcriptional activator Myb G175L, P10242”, the abundance fitness was -0.102 ± 0.077.

Turning to “Transcriptional activator Myb G175M, P10242”, the abundance fitness was -0.283 ± 0.098.

Take “Transcriptional activator Myb G175N, P10242”: the abundance fitness was -0.197 ± 0.18.

Regarding “Transcriptional activator Myb G175P, P10242”, the abundance fitness is -0.594 ± 0.11.

The substance “Transcriptional activator Myb G175Q, P10242” yielded an abundance fitness of -0.315 ± 0.12.

In the case of “Transcriptional activator Myb G175R, P10242”, the abundance fitness was -0.281 ± 0.053.

On to “Transcriptional activator Myb G175S, P10242”, for which the abundance fitness was -0.13 ± 0.074.

The substance “Transcriptional activator Myb G175V, P10242” gave an abundance fitness of -0.409 ± 0.066.

“Transcriptional activator Myb G175W, P10242” displayed an abundance fitness of -0.168 ± 0.077.

As for “Transcriptional activator Myb G175Y, P10242”, the abundance fitness is -0.256 ± 0.14.

For the substance “Transcriptional activator Myb G197C, P10242”, the abundance fitness came out at 0.032 ± 0.098.

Turning to “Transcriptional activator Myb G197D, P10242”, the abundance fitness is -0.09 ± 0.13.

Turning to “Transcriptional activator Myb G197F, P10242”, the abundance fitness was -0.148 ± 0.39.

“Transcriptional activator Myb G197H, P10242” yielded an abundance fitness of -0.395 ± 0.21.

With “Transcriptional activator Myb G197I, P10242”, the abundance fitness was -0.717 ± 0.24.

Regarding “Transcriptional activator Myb G197K, P10242”, the abundance fitness is -0.124 ± 0.12.

In turn, “Transcriptional activator Myb G197L, P10242” registered an abundance fitness of -0.34 ± 0.083.

As to “Transcriptional activator Myb G197M, P10242”, the abundance fitness is -0.334 ± 0.12.

The substance “Transcriptional activator Myb G197N, P10242” gave an abundance fitness of 0.083 ± 0.16.

The substance “Transcriptional activator Myb G197P, P10242” showed an abundance fitness of -0.13 ± 0.1.
